Results published in the RNAGym collection of RNA variant scans (doi:10.1021/acssynbio.7b00057).

B1: Pistol ribozyme (parent)
chain: GGGUCGUUGUUCCAUAAUCGCGUGGAUAUGGCACGCAAGUUUCUACCGGGCACCGUAAAUGUCCGACUGGAGCCGUUCGGGCGGCUAUAAACAGACCUCAGGCCCGAAGCGUGGCGGCACCUGCCGCCGGUGGUAAAAAAGAUCGGAAGAGCACACGUCU

Variants of: B1
Test: aptazyme ON/OFF ratio, guanine; higher = stronger switching; co-transcriptional cleavage with and without guanine

Row | Variant | aptazyme ON/OFF ratio
1 | U7C U8G G9C U10A U11G | 1.18
2 | U7C U8G G9C U10A U11A | 1.3
3 | U7C U8G G9C U10A U11C | 1.03
4 | U7C U8G G9C U10C C12G C13G | 1.09
5 | U7C U8G G9C U10C C12G C13A | 1.43
6 | U7C U8G G9C U10C C12G C13U | 1.1
7 | U7C U8G G9C U10C | 3.58
8 | U7C U8G G9C U10A | 1.28
9 | U7C U8G G9A U11C C12U | 1.11
10 | U7C U8G G9A U11C C12A | 1.1
11 | U7C U8G G9A U11C C12G | 1.11
12 | U7C U8G G9A U11C C12G C13U | 1.1
13 | U7C U8G G9A U11C C12G C13G | 1.17
14 | U7C U8G G9A U11C C12G C13A | 1.05
15 | U7C U8G G9A U11A C12A C13U | 1.24
16 | U7C U8G G9A U11A C12A C13A | 1.3
17 | U7C U8G G9A U11A C12A C13G | 1.15
18 | U7C U8G G9C C12A | 1.58
19 | U7C U8G G9C C12U | 1.11
20 | U7C U8G G9C C12G | 1.28
21 | U7C U8G G9C C12U C13A | 1.16

Row | Variant | aptazyme ON/OFF ratio
22 | U7C U8G G9C C12U C13G | 1.07
23 | U7C U8G G9C C12U C13U | 1.2
24 | U7C U8G G9C U10C U11A C12U C13A | 1.08
25 | U7C U8G G9C U10C U11A C12U C13U | 1.08
26 | U7C U8G G9C U10C U11A C12U C13G | 1.21
27 | U7C U8G G9A U11C C13U | 1.05
28 | U7C U8G G9A U11C C13G | 1.02
29 | U7C U8G G9A U11C C13A | 1.04
30 | U7C U8G G9A U11G C13A | 1.21
31 | U7C U8G G9A U11G C13G | 1.03
32 | U7C U8G G9A U11G C13U | 1.13
33 | U7C U8G G9C U10A U11G C13U | 1.18
34 | U7C U8G G9C U10A U11G C13G | 1.03
35 | U7C U8G G9C U10A U11G C13A | 1.19
36 | U7C U8G G9A U10G U11G C12U | 1.36
37 | U7C U8G G9A U11A C12G | 1.11
38 | U7C U8G G9A U11A C12A | 1.29
39 | U7C U8G G9A U11A C12U | 1.26
40 | U7C U8G G9C U10A U11C C13U | 1.01
41 | U7C U8G G9C U10A U11C C13G | 1.04
42 | U7C U8G G9C U10A U11C C13A | 1.07

Row | Variant | aptazyme ON/OFF ratio
43 | U7C U8G G9C U10A C12A | 1.2
44 | U7C U8G G9C U10A C12G | 1.14
45 | U7C U8G G9C U10A C12U | 1.17
46 | U7C U8G G9A U11G C12U C13G | 1.29
47 | U7C U8G G9A U11G C12U C13A | 1.27
48 | U7C U8G G9A U11G C12U C13U | 1.27
49 | U7C U8G G9C U10C C12U C13U | 1.09
50 | U7C U8G G9C U10C C12U C13G | 1.08
51 | U7C U8G G9C U10C C12U C13A | 1.05
52 | U7C U8G G9C U10A U11G C12G C13G | 1.16
53 | U7C U8G G9C U10A U11G C12G C13A | 1.31
54 | U7C U8G G9C U10A U11G C12G C13U | 1.18
55 | U7C U8G G9C | 1.08
56 | U7C U8G G9C U10A U11G C12U C13G | 1.12
57 | U7C U8G G9C U10A U11G C12U C13A | 1.16
58 | U7C U8G G9C U10A U11G C12U C13U | 1.18
59 | U7C U8G G9C C12A C13U | 1.31
60 | U7C U8G G9C C12A C13A | 1.21
61 | U7C U8G G9C C12A C13G | 1.09
62 | U7C U8G G9C U10A U11C C12U C13U | 1.09
63 | U7C U8G G9C U10A U11C C12U C13A | 1.11

Row | Variant | aptazyme ON/OFF ratio
64 | U7C U8G G9C U10A U11C C12U C13G | 1.12
65 | U7C U8G G9C U10A U11A C12U C13G | 1.17
66 | U7C U8G G9C U10A U11A C12U C13U | 1.24
67 | U7C U8G G9C U10A U11A C12U C13A | 1.21
68 | U7C U8G G9C U10A U11A C12G C13G | 1.18
69 | U7C U8G G9C U10A U11A C12G C13U | 1.17
70 | U7C U8G G9C U10A U11A C12G C13A | 1.12
71 | U7C U8G G9C U10C U11A C13A | 1.21
72 | U7C U8G G9C U10A U11A C12G | 1.14
73 | U7C U8G G9C U10A U11A C12U | 1.26
74 | U7C U8G G9C U10A U11A C12A | 1.22
75 | U7C U8G G9A U11G C12A C13G | 1.17
76 | U7C U8G G9A U11G C12A C13U | 1.19
77 | U7C U8G G9A U11G C12A C13A | 1.17
78 | U7C U8G G9C U10A C13U | 1.15
79 | U7C U8G G9C U10A C13G | 1.08
80 | U7C U8G G9C U10A C13A | 1.14
81 | U7C U8G G9C U10C U11A C12G C13G | 1.17
82 | U7C U8G G9C U10C U11A C12G C13A | 1.1
83 | U7C U8G G9C U10C U11A C12G C13U | 1.12
